The nature of the series: protein stability index of a GFP-peptide fusion (GPS, HEK-293T) (PSI 1-6); higher = more stable. The settings on record: c terminus: a fixed tail appended.

± gives the standard deviation.
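Note: 24-mer peptide tiles fused after GFP, lentivirally expressed, FACS-sorted into six equal bins by GFP/DsRed ratio, decoded by Illumina sequencing, PSI is the read-weighted mean bin number.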

Regarding EICSEPVAASPAPAGERRIYRHRI [ZNF511], the protein stability index worked out at 4.27 ± 0.47 (treatment: DMSO) and 4.09 ± 0.26 (treatment: MLN4924 1 uM, 8 h).

Regarding EKCKEEFVEEIKKLATQHKQLISQ [ZMYND11], the protein stability index reads like this: (treatment: DMSO) 4.2 ± 0.28; (treatment: MLN4924 1 uM, 8 h) 4.06 ± 1.2.

On to EKGLPLRKTHVLLGRSHDTVQEAA [MFSD9], for which the protein stability index runs as follows: (treatment: DMSO) 4.22 ± 0.23; (treatment: MLN4924 1 uM, 8 h) 4.15 ± 0.34.

With EKLGSGEPSHSVKVHTVPKPGKGA [ATE1], the protein stability index is 5.04 ± 0.23 (treatment: DMSO) and 5 ± 0.22 (treatment: MLN4924 1 uM, 8 h).

Consider EKLSRGLRYYYDKNIIHKTSGKRY [ETS2], for which the protein stability index is, setting by setting: (treatment: DMSO) 2.74 ± 0.34; (treatment: MLN4924 1 uM, 8 h) 2.92 ± 0.2.

EKSVTKDAEGLAARDVQKIIGDYF [INTS4] yielded a protein stability index (treatment: DMSO) of 2.85 ± 0.4 and a protein stability index (treatment: MLN4924 1 uM, 8 h) of 3.51 ± 0.12.

Consider ELANGKPQTRSGPECGLAKKPPEE [ADAMTSL2], for which the protein stability index (treatment: MLN4924 1 uM, 8 h) was determined as 4.78 ± 0.42.

For ELDELLKEISRKRRSIRYGREVEL [PTPRD], the protein stability index was 2.5 ± 0.68 (treatment: DMSO) and 2.96 ± 0.61 (treatment: MLN4924 1 uM, 8 h).

For ELEKAHLALIDYLTQKRSQLVKKL [VPS39], the protein stability index (treatment: DMSO) was 2.28 ± 0.39 and the protein stability index (treatment: MLN4924 1 uM, 8 h) is 2.58 ± 0.23.

For the sequence ELGSEVDITEGDRKPDYTAYVAMI [ATF4], the protein stability index by setting is: (treatment: DMSO) 3.46 ± 0.15; (treatment: MLN4924 1 uM, 8 h) 3.61 ± 0.3.

In the case of ELLDLSKQYDQQFPDGDDEFDSPH [STX11], the protein stability index reads like this: (treatment: DMSO) 4.89 ± 0.2; (treatment: MLN4924 1 uM, 8 h) 4.9 ± 0.17.

As to ELNNCISMLVAGNDRVQTIITQLE [TRIM63], the protein stability index reads like this: (treatment: DMSO) 2.25 ± 0.39; (treatment: MLN4924 1 uM, 8 h) 2.38 ± 0.11.

Regarding ELQQRNPKAERLRWSPAQEESFRQ [ZNF232], the protein stability index by setting is: (treatment: DMSO) 3.3 ± 0.37; (treatment: MLN4924 1 uM, 8 h) 3.49 ± 0.77.

In turn, ELRLYKQQVKKLEKALKKNVKLQE [CEP70] had a protein stability index (treatment: DMSO) of 2.8 ± 0.59 and a protein stability index (treatment: MLN4924 1 uM, 8 h) of 3.08 ± 0.25.

For the sequence EMCHKPDVELLQDLGDIVARSESV [TRIM43], the protein stability index (treatment: DMSO) was 4.66 ± 0.15 and the protein stability index (treatment: MLN4924 1 uM, 8 h) turned out to be 4.62 ± 0.24.

As to EMDKLRASDIMEPNLTYVYPHTRI [CLCN6], the protein stability index (treatment: DMSO) was determined as 2.58 ± 0.23 and the protein stability index (treatment: MLN4924 1 uM, 8 h) was determined as 2.92 ± 0.31.

In the case of ENAQIIYSLAEDTIQGVPLSSYIS [PCDHGA10], the protein stability index was 2.51 ± 0.41 (treatment: DMSO) and 2.82 ± 0.43 (treatment: MLN4924 1 uM, 8 h).

Turning to ENEQRRLFIQKEEQLQQILKRKNK [MNAT1], the protein stability index is 4.38 ± 0.18 (treatment: DMSO) and 4.21 ± 0.2 (treatment: MLN4924 1 uM, 8 h).

ENKESWDKILALVPETIHDELQQS [PRIM1] had a protein stability index (treatment: DMSO) of 4.82 ± 0.3 and a protein stability index (treatment: MLN4924 1 uM, 8 h) of 4.72 ± 0.39.

On to ENPDLQEAYIAKQKRLKSKLLDHD [GDAP1], for which the protein stability index was 4.53 ± 0.11 (treatment: DMSO) and 4.67 ± 0.15 (treatment: MLN4924 1 uM, 8 h).

In the case of EPASESVVGALPAEHQFSFMEKRN [TRAF3IP2], the protein stability index (treatment: DMSO) was found to be 4.71 ± 0.26 and the protein stability index (treatment: MLN4924 1 uM, 8 h) turned out to be 4.98 ± 0.27.

As to EPGRLGSSSPASVTTEQLGAKMTE [PXN], the protein stability index turned out to be 5.2 ± 0.46 (treatment: DMSO) and 5.23 ± 0.24 (treatment: MLN4924 1 uM, 8 h).

As for EPQPFVTSDVYSSDAAFGGILERY [MYORG], the protein stability index is 3.79 ± 0.095 (treatment: DMSO) and 3.87 ± 0.058 (treatment: MLN4924 1 uM, 8 h).

As for EPTAAATARRSKRERREEDRAPAE [PWWP2B], the protein stability index runs as follows: (treatment: DMSO) 5.7 ± 0.095; (treatment: MLN4924 1 uM, 8 h) 5.45 ± 0.14.

Regarding EPWLPLTDGRSPRRSRDPGYDHLW [PLEKHN1], the protein stability index is, setting by setting: (treatment: DMSO) 3.68 ± 0.14; (treatment: MLN4924 1 uM, 8 h) 3.57 ± 0.26.

Turning to EPYGHLNPKWTKWLQKLCCPCCFG [PI4K2A], the protein stability index runs as follows: (treatment: DMSO) 3.33 ± 0.33; (treatment: MLN4924 1 uM, 8 h) 3.37 ± 0.21.

As for EQGLSALHLAAQGRHAQTVETLLR [RIPK4], the protein stability index is 3.71 ± 0.55 (treatment: DMSO) and 4.12 ± 0.23 (treatment: MLN4924 1 uM, 8 h).

Take EQHISKCKKAFREGSRKSSRVKGS [KMT2E]: the protein stability index by setting is: (treatment: DMSO) 4.59 ± 0.26; (treatment: MLN4924 1 uM, 8 h) 4.63 ± 0.25.

In the case of EQLIEAINNGDFEAYTKICDPGLT [CAMK2D], the protein stability index by setting is: (treatment: DMSO) 4.06 ± 0.34; (treatment: MLN4924 1 uM, 8 h) 4.1 ± 0.23.

As for EQLREALHEALLEYEAGRAGPGGG [ESRRA], the protein stability index reads like this: (treatment: DMSO) 3.92 ± 0.27; (treatment: MLN4924 1 uM, 8 h) 4.05 ± 0.39.

For EQQQILIRQLQEQHYQQYMQQLYQ [ACBD3], the protein stability index is 2.2 ± 0.38 (treatment: DMSO) and 2.24 ± 0.3 (treatment: MLN4924 1 uM, 8 h).

As for EQRANDLEQIMESVKSKIGELEDE [CEP70], the protein stability index came to 5.41 ± 0.098 (treatment: DMSO) and 5.39 ± 0.18 (treatment: MLN4924 1 uM, 8 h).

EQVANKGEPLALPLDAGEYCVPRG [BEX1]: the protein stability index (treatment: DMSO) was found to be 4.86 ± 0.29 and the protein stability index (treatment: MLN4924 1 uM, 8 h) turned out to be 4.79 ± 0.27.

Regarding ERDLQELSIQVEEERRAREWLLDA [ZMAT5], the protein stability index (treatment: DMSO) came out at 4.54 ± 0.092 and the protein stability index (treatment: MLN4924 1 uM, 8 h) turned out to be 4.95 ± 0.32.

ERHCHLYTFHARFGEVRPYFYLGG [TRIM35]: the protein stability index turned out to be 2.61 ± 0.49 (treatment: DMSO) and 2.6 ± 0.52 (treatment: MLN4924 1 uM, 8 h).

Turning to ERLAKNLVEKGVLTTEKQNFLLFD [GOLPH3], the protein stability index (treatment: DMSO) turned out to be 3.16 ± 0.52 and the protein stability index (treatment: MLN4924 1 uM, 8 h) came to 3.43 ± 0.34.

With ERRGTPADTEEPTKDPDVAFHGLS [PSD2], the protein stability index reads like this: (treatment: DMSO) 5.38 ± 0.42; (treatment: MLN4924 1 uM, 8 h) 5.38 ± 0.17.

Take ERTYSANCSDFLESKGCFANTTPS [SPATS1]: the protein stability index was 3.67 ± 0.14 (treatment: DMSO) and 3.56 ± 0.18 (treatment: MLN4924 1 uM, 8 h).

Sequence ESEFDIEDEDKSEPEQTGADAAED [RBBP5] yielded a protein stability index (treatment: DMSO) of 5.73 ± 0.18 and a protein stability index (treatment: MLN4924 1 uM, 8 h) of 5.826 ± 0.029.

Take ESIQRIAVHLCNALVCQVDNDHKE [ZER1]: the protein stability index is, setting by setting: (treatment: DMSO) 2.81 ± 0.63; (treatment: MLN4924 1 uM, 8 h) 2.64 ± 0.36.

As for ESLLAPLNVELDPEIQKVRAQERE [KRT71], the protein stability index is, setting by setting: (treatment: DMSO) 5.54 ± 0.44; (treatment: MLN4924 1 uM, 8 h) 5.48 ± 0.2.

In the case of ESQASRKEEGLPEEEPSHVTGREG [ZNF8], the protein stability index reads like this: (treatment: DMSO) 5.62 ± 0.1; (treatment: MLN4924 1 uM, 8 h) 5.59 ± 0.2.

Regarding ESSVPSTVGCSSQHTPDQANSDRA [PLEKHN1], the protein stability index turned out to be 5.42 ± 0.2 (treatment: DMSO) and 5.61 ± 0.16 (treatment: MLN4924 1 uM, 8 h).

For ETLLGDPKRRMRYFDPLRNEYFFD [KCNA3], the protein stability index turned out to be 2.58 ± 0.37 (treatment: DMSO) and 2.79 ± 0.29 (treatment: MLN4924 1 uM, 8 h).

In the case of ETPEWLDSDSCQKCDQPFFWNFKQ [WDFY2], the protein stability index (treatment: DMSO) stood at 2.94 ± 0.29 and the protein stability index (treatment: MLN4924 1 uM, 8 h) is 3.19 ± 0.11.

In the case of ETTEAIDDEGWLHSGDLGQLDGLG [ACSBG2], the protein stability index was 5.23 ± 0.25 (treatment: DMSO) and 5.15 ± 0.21 (treatment: MLN4924 1 uM, 8 h).

EVLEWYTAKDFIVGKSLTILGRTF [EFHC1]: the protein stability index is, setting by setting: (treatment: DMSO) 3.13 ± 0.62; (treatment: MLN4924 1 uM, 8 h) 2.62 ± 0.61.

In the case of EWVLSTGQDKQFAWHCSESGQRLG [WDFY2], the protein stability index reads like this: (treatment: DMSO) 3.21 ± 0.23; (treatment: MLN4924 1 uM, 8 h) 3.05 ± 0.2.

For EYDVYSTFQSHEPEFDYLKSLEIE [PPP2R2C], the protein stability index worked out at 4.33 ± 0.17 (treatment: DMSO) and 4.3 ± 0.078 (treatment: MLN4924 1 uM, 8 h).

With FAASLLTVFAWLLQYARGLWLARA [C2CD2L], the protein stability index turned out to be 2.8 ± 0.49 (treatment: DMSO) and 2.54 ± 0.4 (treatment: MLN4924 1 uM, 8 h).

Regarding FAGSMFGSVALGPVCPTVCPPGGI [KRT71], the protein stability index is, setting by setting: (treatment: DMSO) 2.73 ± 0.61; (treatment: MLN4924 1 uM, 8 h) 2.36 ± 0.57.

Take FAKAGDTLSGTCLLIANKRQSYDI [CARM1]: the protein stability index is, setting by setting: (treatment: DMSO) 2.48 ± 0.38; (treatment: MLN4924 1 uM, 8 h) 2.36 ± 0.41.

With FAPLLDEQYDLATKRVRQLLDLDP [GOLPH3], the protein stability index by setting is: (treatment: DMSO) 2.64 ± 0.48; (treatment: MLN4924 1 uM, 8 h) 2.94 ± 0.33.

For the origin of these results see the supplement of paper PMC10567573.
